± gives the uncertainty stated by the source.
assay: amyloid nucleation score (Sup35N fusion, yeast selection) (log enrichment); library NNK1; higher = more nucleation; inactive = no reads after selection
How it was run: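 Nucleation score: DiMSum log enrichment of output over input reads, centred on the mode score of non-aggregating sequences. Only sequences with at least 100 input reads were kept. Reads came from Illumina sequencing of plasmid inserts before and after 7 days of growth at 30°C without adenine and uracil, in psi-negative yeast expressing Sup35N fused to peptides of 20 random codons after 24 hours of induction with 100 μM copper sulfate.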

Substance	amyloid nucleation score
LGRSWWYYSQLWDSRHLSF	-0.38 ± 1.5
LGVIYLRLWFQSGGRQVLEG	0.089 ± 0.42
LHLECLWCLARTSYF	8.244 ± 0.045
LHRNSTPFIWHRRIEVSLGN	-0.201 ± 1.3
LIARMWANFRRGVSITARF	0.87 ± 0.87
LICSSYTNLALILHLWSKRF	0.209 ± 0.26
LIDLCGLCFEAR	0.181 ± 0.26
LIGHRSRS	-1.57 ± 1.1
LILHSNSGFNGYWVSQWNTM	-0.304 ± 0.44
LIQLVDRVGGGVFTRDCDAI	-0.368 ± 0.47
LISFSCVVNSLAEPRYIFLS	1.13 ± 0.88
LITNP	2.86 ± 0.12
LIVLWNCSADPDGFMWCSKC	inactive
LIYFKGSS	0.399 ± 0.79
LKAELSNLKAHVLW	0.777 ± 0.54
LKAGFM	-0.102 ± 0.28
LKAIFVFFVEFRDPLIMRES	0.269 ± 0.79
LKDCSCVERQD	-0.072 ± 0.38
LKKTYYSMYL	-0.045 ± 0.33
LKQTPMLGDMGWGHRCLGKT	-0.262 ± 0.73
LKRDSFWVLIKWTRLDMGVS	0.056 ± 0.37
LKRVGSNLNT	-0.229 ± 1.4
LKTSRMFLG	-0.68 ± 0.39
LKVTCFRTYANFGRYDILVF	0.096 ± 0.53
LKWSSGHGKIGSNVWRRVYC	0.42 ± 1.2

Substance	amyloid nucleation score
LKWWWIQNAGCTVVIMVL	-0.701 ± 0.54
LLAIHAYREVLTGPGCGYLT	1.15 ± 0.66
LLAPAS	0.032 ± 0.35
LLASRPEG	-0.437 ± 0.35
LLAVCYVIF	1.98 ± 0.24
LLCSKCGFTDQFQS	-1.09 ± 1.2
LLCTYISTEAPIVTFLRLTY	-0.667 ± 0.44
LLDRLRRTGLRRCYVSGEFP	5.89 ± 0.084
LLGDMMALQAYSELLRFMSG	-0.234 ± 0.61
LLGVSAF	-0.718 ± 0.68
LLHVYYFFISWPMFCMVYM	-0.203 ± 0.72
LLIGWASEDHRYKGISNGGG	0.598 ± 0.34
LLKSKGGLPILRPCWLPFWQ	0.066 ± 0.75
LLLAY	-0.716 ± 0.44
LLLDLILY	-0.505 ± 0.72
LLLIRSYKCNGRRIRICSLL	-0.862 ± 0.76
LLLYPRMGDRGTYYGMSGIR	-1.01 ± 2.7
LLRLLVRAVMFFWAWGSRGA	inactive
LLSIVPPDIFCQFSGHGRLT	0.26 ± 0.62
LLTSMSSGLVDYR	inactive
LLVCSMHFISMTPVMPNSTA	2.12 ± 0.24
LLVVSYFITSLSTCMFGYWK	-0.411 ± 0.63
LLWAPILCLTGDNTVGFLSP	3.3 ± 0.066
LLWGATFCSSIQPDYNLSPV	-0.095 ± 0.44
LMFGLAMVNENPRGLSELRR	0.065 ± 0.27

Substance	amyloid nucleation score
LMFSDGWFLNGEISPWVGF	-0.393 ± 0.71
LMKGTYFIMCNLLAYECLTR	2.78 ± 0.14
LMSLRDQRVLALN	-0.533 ± 0.44
LMSWEL	0.462 ± 1.2
LMTLINPQFFSCSFLDDVSN	-0.362 ± 0.6
LMWSMPNGTSYGNGPVEWTG	-0.515 ± 0.81
LNDRYYVIM	0.233 ± 0.93
LNFIHNGM	-0.444 ± 1.9
LNGPTVTKECRGAYMVMPGT	-0.431 ± 1.1
LNHSYMICLFLCNR	6.95 ± 0.073
LNINSFFVFGT	4.97 ± 0.057
LNIRVIRGLGRMNAPVVSDL	1.32 ± 0.57
LNLAKPLFSHRLRRFKCSYF	2.08 ± 0.23
LNPCHWGAFLY	0.648 ± 0.67
LNRSNWANFCMAEFMDPRS	0.488 ± 0.58
LNSYVRG	0.201 ± 0.3
LNWMCTNWAMFFYTQVILQY	-0.488 ± 1.1
LNYTVQSDTWHLNWQP	0.875 ± 0.93
LPFEVRLDCDVVGGG	0.725 ± 0.48
LPFMTHVHVLSRQKTKVKGR	-0.041 ± 0.28
LPFNVL	3.09 ± 0.2
LPLHAESTGCYGLFSEHFSI	-1.27 ± 1.2
LPRRKLNFIGLKISISIIAV	inactive
LPSGLRCRTSRMDVAKLAK	0.441 ± 0.47
LPSSGA	-0.019 ± 0.64

Substance	amyloid nucleation score
LPWLPLKSRYALTAKFTCEP	0.261 ± 1.2
LPWYSSQMRADVSTPERWFL	-0.224 ± 0.7
LQGCGYYKFGITEEWH	0.415 ± 0.78
LQNETLSMSMRLLMAYFIKL	0.13 ± 1.2
LQWNRERGLTLLSWLRYKSI	-0.505 ± 1.5
LRAFR	1.81 ± 0.33
LRDNMLSEGMQLYCMARASA	-0.201 ± 0.72
LRFVVFASTIGRGIGST	-0.892 ± 0.48
LRHTCVRPSWSNAIFMPNSA	0.834 ± 0.57
LRIFSA	1.22 ± 0.8
LRIRYT	2.42 ± 0.17
LRKCSLAVPYGLRLVYLRKE	0.14 ± 0.54
LRKSHYFTY	-0.429 ± 0.58
LRKTFF	0.38 ± 0.33
LRLTALGSSRPIKFEGNVGY	-0.532 ± 0.68
LRMKANYVTSAFNRCVLLLG	0.425 ± 0.41
LRNRMGNDIISILITIPKIV	0.217 ± 0.34
LRRLNRHFIVTFFNGTRCDF	2.1 ± 0.26
LRSGKAQYTEVVLLRIRPGF	-1.4 ± 2.7
LRTRSLTALFQLCYHTCNVG	0.431 ± 0.42
LRVQWRQSTFN	0.865 ± 0.48
LRYCNMHHRHDSYGLSSYSY	2.21 ± 0.11
LRYSYTRDHSGTPYPSTGNS	-0.74 ± 1.1
LSATGGMGIRF	-0.318 ± 1.2
LSCPRLVTLCCNLWDKYSLW	0.955 ± 0.28

Substance	amyloid nucleation score
LSCPRNYWRSSLLVFMDGSQ	0.319 ± 0.63
LSCSFDESW	0.024 ± 0.24
LSERYVSTGVARDSGNAKVG	3.88 ± 0.11
LSEYVKEAVVDPRLTFARIA	-0.764 ± 0.89
LSIRYWCYNLRLVQAHCFRV	-0.657 ± 0.56
LSLNIYCMRS	7.155 ± 0.045
LSLTRAMGIYFRWVLSRSFG	-0.837 ± 2.4
LSLYESLSNPLVRSYRLFCR	0.517 ± 0.45
LSNKLEYPMSPLISAVLFSA	inactive
LSNLDMVM	inactive
LSRFEQGHELLHKSVIYCEV	-0.304 ± 0.32
LSSFMAAGVSLMCNTFLIWH	0.729 ± 0.51
LSSSGFWYWFT	-0.251 ± 0.32
LSTGLKFACATRVSYALVRV	0.117 ± 0.5
LSVNICKKY	3.5 ± 0.1
LSVQTWFGLSACYTGQAKYS	0.171 ± 1.2
LSWES	-0.866 ± 0.73
LSYDSYSYIGLGGSLEIFWA	0.182 ± 0.71
LSYEDSSFNFLNSFYIKSWW	-0.161 ± 0.5
LSYMGGIPGVLHVMPDAFTV	-0.077 ± 0.7
LSYRSSRFGVS	0.3 ± 0.64
LTCMLVRRFGNFIDDSYARA	-1.2 ± 0.5
LTCRYLACCSLRSGRQMLVG	-0.694 ± 1.2
LTEYFSSVVEYDGYPVLSE	-0.91 ± 1
LTHVIGIPRQPCEPLVHLYG	-0.745 ± 2.4

Substance	amyloid nucleation score
LTITGSFIHPI	-0.739 ± 0.79
LTLFQYAFDVHETAVLKLEW	-0.166 ± 0.4
LTNGAVGVTFAQNVWPFYAN	3.67 ± 0.074
LTTPSFYLAGCSSS	-0.059 ± 0.36
LTVKCCDVSWVRFWYCIAGG	6.618 ± 0.056
LVASSFDYMMLSSVGRGYGL	-0.245 ± 0.3
LVDSPCQRSYTRRPHTHWR	0.15 ± 0.34
LVFPWIISFCQRMWMLYQRY	0.499 ± 0.35
LVFVFWLKVEPPMLSTCMSK	-1.16 ± 2.7
LVFVVMYGSRPSLKWWGITC	0.473 ± 0.79
LVILVTIVDFMEDLSW	0.74 ± 0.54
LVKLIWRISAWHSWFVSR	1.48 ± 0.8
LVLANTDSLTLWFLVTYLTC	-0.42 ± 0.62
LVLIAA	inactive
LVLLQVVIYGHLQCSFYQMH	1.8 ± 0.23
LVMCVFLSASVYVFPTHLSS	-1.18 ± 1.4
LVNVGGQEIKVMR	0.888 ± 0.2
LVNYLICWT	-0.078 ± 0.82
LVPSWRVFVQHLGLFRAL	0.333 ± 0.7
LVQVIVHFGIYIISAKGQGT	3.1 ± 0.15
LVSCDIVWWTAMFGLLARMF	0.591 ± 0.37
LVSMRMAFCPWLVRKGIPL	0.206 ± 1.6
LVTNAYTYSSTGIYDYVRPG	0.093 ± 0.81
LVVDRGVNGCAFSWDTNDLS	-0.52 ± 0.71
LVVHTVRVQDR	-0.043 ± 0.41

Substance	amyloid nucleation score
LVYLA	-0.569 ± 0.87
LWATNFCNTGFVYSLCIFSR	3.89 ± 0.12
LWERGKCHEACVVPAKKEGT	0.039 ± 0.51
LWFGSHLTNCVKYDLKGESV	1.41 ± 0.47
LWGRGCMCWVVVARCFWPLR	-0.153 ± 1.4
LWHAYAKSGYPFGSMVGVHA	0.703 ± 0.4
LWIQMLAWCSRCM	1.65 ± 0.32
LWLRGLVSFRQSHGRTGKSS	-0.126 ± 0.33
LWMHAGSGRIKLETGCGAKC	inactive
LWRLANWRM	-0.46 ± 0.27
LWSFIGTGLITNMCISREFK	0.743 ± 0.16
LYAIYTAFNRVSSYSNMPVM	-0.599 ± 0.92
LYANNMLSGILCNGFSTITS	-0.339 ± 0.63
LYASASADHSRQRREGTPVL	-0.54 ± 0.59
LYAYDWLHEGNSSHKSDLVM	-0.791 ± 0.77
LYCTLLKDSVSSLAVTYMSY	-0.071 ± 0.28
LYCWVFSLSSMESNWLGQHT	-0.012 ± 0.29
LYDRCYGIRSSAIEGEEYKR	0.806 ± 0.97
LYESYDMVEKQDRTWSKGSS	0.281 ± 0.65
LYFEIYRVIIFKDAFVASMR	-0.63 ± 0.64
LYHRSSLGMVSVVGDSMSDT	0.596 ± 1.2
LYKLTEFQAYKVIRPSACCV	-1.13 ± 2.4
